Here are results for 18 sequences from the DeepSol protein solubility set.

The data set can be described thus: soluble on expression in E. coli; label from the status in PepcDB or PDB records.
Turning to “MAYFTAKRASSMGASTVPSGNDHLLEALTLCDCILSRYKRCGVQLNDAEAAAFANLQQRISSISGHAADAACPAGATRKQSQELGLHEYAQLAQRCLIFQNPLAQIVATINEEFSKLVSCSVRTHYANTNDAVLCDPVHDTVATIDTSTPIGRCAKTKTTVTISDTVYIPLCYNSHVVGCLEVESTAIDTSTPFFGYLLQVAALTLQNATSIDTLRWETRKAEAMVGMATRLARDTLEESVLVQSIINTAKTLTESDRCSIFLVKADGSLEAHFEDGNVVVLPAGTGIAGHVAESGAVVNIPNAYEDDRFHRSVDKVTGYHTRTILCLPIAFEGTIVAVAQLINKLDMVTQSGQRLPRVFGRRDEELFETFSMFAAASLRNCRINETLLKEKKKSDAILDVVALLSNTDIRDVDSIVRHVLHGAKKLLNADRSSMFLLDKERNELYSKMADSANEIRFPCGQGIAGTVAESGVGENIMDAYADSRFNSAVDRQLGYRTQSILCEPITLNGEVLAVVQLVNKLGDDGSVTCFTPTDQETFKVFSLFAGISINNSHLLEFAVNAGREAMTLNLQRNSITAQRAPKSVKVIAVTPEEREAVMSIDFGGAYDFTSPGFNLFEVREKYSEPMDAAAGVVYNLLWNSGLPEKFGCREQTLLNFILQCRRRYRRVPYHNFYHVVDVCQTLHTYLYTGKASELLTELECYVLLVTALVHDLDHMGVNNSFYLKTDSPLGILSSASGNNSVLEVHHCSLAIEILSDPAADVFEGLSGQDVAYAYRALIDCVLATDMARHGDLSRVFDDMAKAGYDSNDQESRRLVMETLIKAGDVSNVTKPFETSRMWAMAVTEEFYRQGDMEKEKGVEVLPMFDRSKNNELARGQIGFIDFVAGKFFRDIVGNLFHGMQWCVDTVNSNRAKWQEILDGRRDSIRPSIV”, the “soluble on expression in E. coli” value is reported as “not soluble”.
The value for “GPLGSMEPPLPVGAQPLATVEGMEMKGPLREPCALTLAQRNGQYELIIQLHEKEQHVQDIIPINSHFRCVQEAEETLLIDIASNSGCKIRVQGDWIRERRFEIPDEEHCLKFLSAVLAAQKAQS” was “soluble”; that for “MGSDKIHHHHHHSNINPSNGEGRDPLENFNRAMWKINYEVIDPHIFKPVAKGWRDYVPAPIKRSLVNIANNLDEPASFVNRLIEGDGQKAMRHFTRFWINSTFGLAGLIDWASQIKELKLENGNREFGDTLGHYGVPAGSYIMAPGYGPITPRQAVGKVVDSVYPMLSMLATPWMLTKFFVQSIDTRAQFINQEALLTNSADPYISFREAYFQNLRFKVKDGDVSDIQEQLSQEELDQID” was “not soluble”.
The result for “GSMDYKDDDDKKTNWLKRIYRVRPCVKCKVAPRDWKVKNKHLRIFNMCKTCFNNSIDIGDDTYHGHVDWLMYADSKEISNT” reads “soluble”; that for “MKNYHDIVLALAGVCQSAKLVHQLATESRADSETFLTALNSLFITQPQRIEDVFGGEVRHLKLGLETLIHQLNAQGDQNLTRYWLSLLALEGKLSKNSDAKQTLGNRISRLKEQEIHYARDSETMLSIMANIYSDIISPLGKKIHILGSPDYLRQELVQNKIRAVLLAGIRSAVLWKQMGGTKWQILFFRRKLLATAKQIYSSIY”, “not soluble”; that for “MTDIKMIALGGVREYGKNFYLVEINDSMFILDAGLKYPENEQLGVDLVIPNLDYVIENKGKVQGIFLSHGHADAIGALPYLLAEVSAPVFGSELTIELAKLFVKSNNSTKKFNNFHVVDSDTEIEFKDGLVSFFRTTHSIPESMGIVIGTDKGNIIYTGDFKFDQAAREGYQTDLLRLAEIGKEGVLALLSDSVNATSNDQIASESEVGEEMDSVISDADGRVIVAAVASNLVRIQQVFDSATAHGRRVVLTGTDAENIVRTALRLEKLMITDERLLIKPKDMSKFEDHELIILEAGRMGEPINSLQKMAAGRHRYVQIKEGDLVYIVTTPSTAKEAMVARVENLIYKAGGSVKLITQNLRVSGHANGRDLQLLMNLLKPQYLFPVQGEYRDLAAHAKLAEEVGIFPENIHILKRGDIMVLNDEGFLHEGGVPASDVMIDGNAIGDVGNIVLRDRKVLSEDGIFIVAITVSKKEKRIISKAKVNTRGFVYVKKSHDILRESAELVNTTVGNYLKKDTFDWGELKGNVRDDLSKFLFEQTKRRPAILPVVMEVR”, “not soluble”.
As for “GPGSMYFTSAKDVVRLCGGGLAPEVTFAIDDYPATDSIGYNSSAVAGGGGTNVDGASMSNVTTAIQRSLRRASRTAGQPTLRPTRTEQVCGPAVLGAGEALGLAPFKYVCYTVSTTSVVAPASGSASAASKGAKGDGGATYVEFVDAFRIRTSDVHAAVIDIAAQQRAERLQHSPNLYVPWCAAAPGEVVPRGAARTVADFIVAARHRTLYSDYAATELLVRQSWLLQDAAAHTIRALMPHMVPRTYMPGEVMACPHTPGSLRQLCFLRRGRLNVFVVPKSGITPVLLMKGESPDVLVTSRFSRDGCGCWCLRETPTAQPAEVVESGASFGELSVLFHEPRHCILRADTVCDVWCLPRQNFAALMQRDAALRDGLLRKAAVLRVEWMGEQRFTRALAQQLRAGSELLKPLPDIAIRLIQERLEPVIYTPGSLVASTSTRCTEMTFIMRGTVSTIWKVLLHTAQGTCWARDA”, the “soluble on expression in E. coli” value is recorded as “not soluble”.
Take “SYSVGQVAGFAGVTVRTLHHYDDIGLLVPSERSHAGHRRYSDADLDRLQQILFYRELGFPLDEVAALLDDPAADPRAHLRRQHELLSARIGKLQKMAAAVEQAMEARS”: the “soluble on expression in E. coli” value is reported as “soluble”.
The value for “MGSDKIHHHHHHMAGIRAKQKEKTRQALINAAMNQLSAENGFSSLSLREVAREAGIAPTSFYRHFRDMDELGLTLVDECGLALRQLLRQARQRIESGGSIIRVSIETFMQFVANNTATFRLLLQERSGRSRSFRLAVVREIDHFKAELEDYLVNEQSFSRELAELQSDTIAKIVFSAGADCFDVDEEEREIITEKTILQVRLVARGAEATRRLLKRES” was “not soluble”; that for “GPGSGRYREGVEDCTKTLQIDKEFYKAYARRARCHEHLGDHFAAVRDFKKAIEYDSTDRELARELRAAEQNLAKEAEKERDFYFQLGVSRTATEREIKLKYRELSLRWHPDKCIGLDEVERERAEHKFKIISEAYATLVDAGKRREYDAKQDRERFTRAGGFNFSSTYSGGNANDYYRGRHRAGGNGFW” was “soluble”; that for “MKETRDLETLSVNAIRFLAIDAVEKARSGHPGMPMGMAPLAYLLFREVMRHNPLDPDWPDRDRFVLSAGHGSMLLYAVLHLTGYDLPLEELKSFRQWGSKTPGHPERGHTPGVEVTTGPLGQGISTAVGLALAERKLAAEFNRPGHVVVDHYTYVLASDGDLMEGVSGEAASLAGHWGLSKLIVFWDDNRISIDGPTDLAFTEDVLARYRAYGWQTLRVEDVNDLEALRKAIKLAKLDERPTLIAVRSHIGFGSPKQDSAKAHGEPLGPEAVEATRRNLGWPYPPFVVPEEVYRHMDMREKGRAWQEAWEKALEAYARAYPDLHQELMRRLRGELPPLPEEPPSFDKPIATRAASGRALNLLAPRLPELLGGSADLTPSNNTKAEGMEDFSRANPLGRYLHFGVREHAMGAILNGLNLHGGYRAYGGTFLVFSDYMRPAIRLAALMGVPTVFVFTHDSIALGEDGPTHQPVEHLMSLRAMPNLFVIRPADAYETFYAWLVALRRKEGPTALVLTRQAVPLLSPEKARGLLRGGYVLEDVEEPQGVLVATGSEVHLALRAQALLREKGVRVRVVSLPSFELFAAQPEAYRKEVLPPGLPVVAVEAGASLGWERYAHKVVALDRFGASAPYPEVYERLGFTPERVAEAFLSLV” was “soluble”.
For the sequence “MKKHHHHHHEDFHGIDIVINHRLKTSLEEGKVLEKTVPDLNNCKENYEFLIKWTDESHLHNTWETYESIGQVRGLKRLDNYCKQFIIEDQQVRLDPYVTAEDIEIMDMERERRLDEFEEFHVPERIIDSQRASLEDGTSQLQYLVKWRRLNYDEATWENATDIVKLAPEQVKHFQKK”, the “soluble on expression in E. coli” value was “soluble”.
As for “MGSDKIHHHHHHMALYPLPALVEQLMTQPIIFIGGKGGVGKTTTAAALASYYASQGKKTLIVSTDPAHSLGDVLKVPLKNQKTVVTPYLDAIELNPDLIVDEHFAQVERTITSYANPDMMPKIREHLRLSKSAPGAQEAAMLESMCQHLVAAADAGYEHIIFDTAPTGHTLRLLVLPEMMGAWTDGLLAQQRRQAKLRSVANHLGSHEQANNNKNDLANPFVERKSDRWEQAVSVLEKRKQLFRQAGLLLHDRRKTAIVLVMTADVLPLAETKRAIEQLEESNLIPAAIVINQLITQTQSDAFWHHRAERQQQLMQDIEKNFTNYPLYPIYLQQTDVRGTDALSALVSPVS”, the “soluble on expression in E. coli” value is “not soluble”.
The result for “MLITHLIDSLSDRAVITPLTPTSVIIYDKNELKVYVGFTNNRNSLEYTKEVVLLLSTEIPKKAEIREIIVSKNGDYVILEGPRSLFVVRIGAEILVAKPDRLPSECFCECYPLHDSLLLQNISLSVVKVRLLPEKCDEKTFVTAVLFSDNCIRFYNLQKKFDSLLLAVDFRNHLHQVHDENVANNTFGLQKALVSFDLIPPKPNTSHFSIISIDSDCDFYTSFVHFSCFKEGYAPRIHRIEPVDGLPCDPLDLRYIQTTNPRICSVFVLVSGGGVLSHLVVFPNEFGEFRFLVKDQLRLPSSNGDPRIVQNQIRSLKVSRYEIATSSSLFSVNIFPWFEALTSISPTSTLEKETRVSELVDAVIPSDELSNTTKWTGARALRAVSVQLTQSLATEEEELLPESENIMHLVILENKDGQPAHLFNISTFDNIWSTENKTSFGRDSVSQPPMKSTGSLEQQLAALKPLAACVISEKVSCEEAIDAAMKFFDAVDERLKKHCEISKLFVERCLAVSSSAQALDEKQQSVDQRLIEETNTVEELKIRMHETKERMEGARKGINVLFHRVDENVPLSDNEIRIFERLKEHQKMLSDMTKLVPKMTLDSNEIHRMANIVLKKRGTGEEQNRFAAVEKNATEIESLEARENKLNTGISELSI” reads “not soluble”; that for “MSQVQNNSSVSELLASNSGSIKSYRKDEEDPQDRFLKLLVTQMQNQDPLSPMDNAEVTSQMAQISTVSGIDKLNTTLEKLVADSDARRSFEAATMIGRGVLVPGTDMQLENQAAIGGFELAESVDKLTVTVKDSAGITVREIDLGAQAAGVGTFVWDGMANNGNAAADGQYSFALKAIRADKEVSSSALAFGSVSSAQAGKDGALLEVGRLGYVGMDAVKKIF”, “not soluble”.
As for “MRGDDMHIYELVSRDRTHPVRIYLLHSEYWTEDEFYNLLLEAFQRSSASDWHLQILEVSKYLVTAHGFVEAGGLQEIGFPGELSKTEVRRRINAFLGKDRSD”, the “soluble on expression in E. coli” value is given as “soluble”.
Consider “MSLGRVTITAVAREAGVSAITVSRYFNQPEQVSPELRERIAAVVNALGYVPNLVAGGLASARSRVVAMVIPNISGPIFANTIQGFSDTLSQHGFQLLLASSYFSAEQEESAVRAFLGWSPAALVLTSRFHSPATEKMIEQTDVPVIETWDHQPERSPIQIGFSHYDVGVTAARYLYDKGYRRIAFVQNSIAGDFSALERRDGYIATLEGLGIKPWVFVPDAGRAPFEAGKQAMETLMSQTPRPDAIFFANDNLAAGALLASQRAGLHIPKDCAVMGFGDYAFAEMMLPSLTTIKPPALEIGVLAATRVLESLGVLPVEGDIQRLNLLECRLVERESTEGHHHHHH”, for which the “soluble on expression in E. coli” value is on record as “soluble”.
The result for “MGSDKIHHHHHHVKKQVPDKTELGRTRVLVVGDVMLDRYWFGAVERISPEAPVPVVRVTREEERLGGAANVALNVKSLGARATLLTVVGDDEPAHTLKRLLERDGIDTLLGSDPQLYTIVKLRVIGRSQQLIRIDFENQPDHEVLAEMLQDYETTLAEQDAVLFSDYGKGGLEHIPRMIELARRSGKPVLVDPKGSDYRRYAGASVITPNRAELAQVVGAWSSEAQLRERAQALRVELGLEALLLTRSEEGMTLFDARGDTSVPAQAREVFDVTGAGDTVIATMAAMIACGLSPREAMPLANRAGSIVVGKFGTASVSYDELFE” reads “not soluble”.
